# Measured values from patent publication US20260027153A1 (published 2026).
# T1: SCAMP3 (secretory carrier-associated membrane protein 3), cancer-enhanced splicing epitope peptide on … (human)
# T1 peptide: STMYYLWML
# T2: MEAF6 (MYST/Esa1 associated factor 6) splicing variant peptide on HLA-A*02:01 (human)
# T2 peptide: SGMFDYDFEYV
# B1: NVTCR19 (TCR, V domains shown)
# Valpha: KQEVTQIPAALSVPEGENLVLNCSFTDSAIYNLQWFRQDPGKGLTSLLLIQSSQREQTSGRLNASLDKSSGRSTLYIAASQPGDSATYLCAVTSGGSYIPTFGRGTSLIVHP
# Vbeta: DGGITQSPKYLFRKEGQNVTLSCEQNLNHDAMYWYRQDPGQGLRLIYYSQIVNDFQKGDIAEGYSVSREKKESFPLTVTSAQKNPTAFYLCASSDPFRSGTDSPLHFGNGTRLTVT
# B2: NVTCR11 (TCR, V domains shown)
# Valpha: GIQVEQSPPDLILQEGANSTLRCNFSDSVNNLQWFHQNPWGQLINLFYIPSGTKQNGRLSATTVATERYSLLYISSSQTTDSGVYFCAVDLNDYKLSFGAGTTVTVRA
# Vbeta: NAGVTQTPKFRVLKTGQSMTLLCAQDMNHEYMYWYRQDPGMGLRLIHYSVGEGTTAKGEVPDGYNVSRLKKQNFLLGLESAAPSQTSVYFCASSSHGSTGELFFGEGSRLTVL
# B3: NVTCR21 (TCR, V domains shown)
# Valpha: AQSVAQPEDQVNVAEGNPLTVKCTYSVSGNPYLFWYVQYPNRGLQFLLKYITGDNLVKGSYGFEAEFNKSQTSFHLKKPSALVSDSALYFCAVRDTPSGSARQLTFGSGTQLTVLP
# Vbeta: GAGVSQTPSNKVTEKGKYVELRCDPISGHTALYWYRQSLGQGPEFLIYFQGTGAADDSGLPNDRFFAVRPEGSVSTLKIQRTERGDSAVYLCASSLTSSGGGPYNEQFFGPGTRLTVL
# Assays:
# [1] = target: HLA-A*02:01 restricted NY-ESO-1 C9V peptide (…) pMHC (human); assay: transduced PBMCs loaded on pMHC-labeled nanovials (20 µg/ml pMHC), flow cytometry
# [2] = target: HLA-A*02:01 restricted NY-ESO-1 C9V peptide (…) pMHC (human); assay: transduced PBMCs loaded on pMHC-labeled nanovials (20 µg/ml pMHC), anti-NGFR staining, flow cytometry
# [3] = target: T1, SCAMP3 (secretory carrier-associated …); assay: multimer staining
# [4] = target: T2, MEAF6 (MYST/Esa1 associated factor 6) …; assay: multimer staining
molecule,measurement,setting,value
1G4 TCR,fraction of nanovials occupied by live cells,[1],17%
same,fraction of nanovial-bound live cells with NGFR expression,[2],93.9%
B1,binding result,[3],recognises
B2,binding result,[3],recognises
B3,binding result,[4],recognises
